Key:
DBF1 [1] = molecular target: DBF1 (Zea mays); assay: EMSA; same buffer; ABRE reported as not bound; settings: tags: pET28 tag (about 31 aa), expressed in E. coli; label: 32P
Source text: (§1) The following DNA oligonucleotides were used in electrophoretic mobility shift assays: DRE2 (SEQ ID NO 4 and 5), DRE2 m (SEQ ID NOs 6 and 7), DRE1 (SEQ ID NO 8 and 9), DRE1/ABRE1 (SEQ ID NOs 10 and 11), ABRE A (SEQ ID Nos12 and 13). The full-length oligonucleotides were purified by denaturing PAGE. Complementary oligonucleotides were annealed and purified in nondenaturing polyacrylamide gel. The double-stranded oligonucleotides were labelled with α³² P-dATP (3000 Ci/mmol, Amersham) by filling in with the Klenow fragment of the DNA polymerase I (Sambrook et al., 1989) and purified on a NAP5 column (Pharmacia), according to the manufacturers instructions. Unlabeled competitor DNA was filled in with nonradioactive nucleotides.
(§2) The radioactive probe was incubated with 400 ng of protein in 20 μl of 1× binding buffer (25 mM HEPES, pH 7.8, 75 mM KCl, 5 mM MgCl_{2,} 0.5 mM EDTA, 0.2 mM DTT and 10% glycerol) and 700 ng poly(dl-dC) for 20 min on ice before loading on a 1× Tris-borate-EDTA, 5% (30:0.8 acrylamide-bis) polyacrylamide gel. Electrophoresis was at 10 V/cm at 4° C. In competition assays the protein was incubated with non-radioactive oligonucleotides in 1× binding buffer, on ice for 10 min prior to adding the radioactive probe and continuing with incubation for 20 min more.

DBF1 [2] = molecular target: DBF1 (Zea mays); assay: EMSA; same buffer; settings: tags: pET28 tag (about 31 aa), expressed in E. coli; label: 32P
Source text: as §1, §2

Sequence of DBF1 (Zea mays) (chain, as listed by the source): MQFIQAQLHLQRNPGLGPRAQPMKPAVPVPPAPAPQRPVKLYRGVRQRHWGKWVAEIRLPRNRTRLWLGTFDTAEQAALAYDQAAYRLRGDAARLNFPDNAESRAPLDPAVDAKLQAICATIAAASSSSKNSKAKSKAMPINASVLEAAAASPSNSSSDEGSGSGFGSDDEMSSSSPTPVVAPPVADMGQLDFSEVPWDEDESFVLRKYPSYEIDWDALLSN

| Binder | binding result (DBF1 [1]) | binding result (DBF1 [2]) |
| --- | --- | --- |
| ABRE A (dsDNA) DNA 1: TGGAAGCTTCGCGCCACGTGGGCATGAGATCT DNA 2: TGGAGATCTCATGCCCACGTGGCGCGAAGCTT | no binding | – |
| DRE1 (dsDNA) DNA 1: GGGGTCGAGAAGAACCGAGACGAAGCGGTCGAG DNA 2: GGGGCTCGACCGCTTCGTCTCGGTTCTTCTCGA | – | no binding |
